From US20260224446A1, “BIFUNCTIONAL PEPTIDES USEFUL FOR COLLAGEN INTRAFIBRILLAR MINERALIZATION” (University of Kansas, priority 2023, published 2026)
“And” between values parts separate entries of the source, which are not always exact repeats. Equal values may be shown once. No end group written: not given here.

Assays:
[1] = ALP-driven mineralization of adhesive/dentin specimen with HABP1, RAMAN imaging with Divisive Clustering Analysis; type: biochemical, human; details: for MNRp 960/1460: RAMAN peak ratio; for FMHW PO4^−3): RAMAN, after ALP-driven mineralization; for GMC 1078/960: carbonate to phosphate peak ratio; for Ca-P/collagen 960/1667: phosphate to amide I peak ratio
Procedure: (§1) ALP-driven mineralization was executed following the protocol discussed in Gungormus et al. (2008). The mineralization buffer prepared was composed of 24.4 Ca^2+ mM and 14.4 mM B-glycerophosphate made in 25 mM Tris-HCl buffer at pH 7.4, and 200 μL/well was added to a 24-well plate. Collagen-peptide samples were placed gently within the well to lay flat at the bottom. The mineralization reaction was initiated by adding FastAP (thermosensitive alkaline phosphatase), 1.4×10^−6 g/mL, and left to incubate at 37° C. for 20 min. The samples were then removed from the wells, gently rinsed in sterile-filtered water, and left to air dry overnight. Throughout this process the samples were handled in a horizontally flat manner to prevent disturbing the peptide-functionalized collagen layer on the surface of the substrate.
Demineralized dentin samples, adhesive/dentin samples (pre/post mineralization), and SC collagen on glass were imaged using a LabRAM ARAMIS Raman microscope (HORIBA Jobin Yvon, Edison, NJ, USA), equipped with a HeNe laser (2=[…], laser power=17 mW). Light micrograph images were taken using a 50× long working distance objective Olympus lens. The samples spectra were evaluated over a wavelength range of 300 cm^−1 to 1800 cm^−1 with a 15 s spectra acquisition time of 4 acquisitions per cycle and processed using LabSPEC 6 software (HORIBA Jobin Yvon, Edison, NJ, USA). Divisive Clustering Analysis (DCA) was used to classify and group respective spectra. This multivariate analysis method was integrated into the LabSPEC 6 analysis software as a Multivariate Analysis (MVA) module (powered by Eigenvector Research Inc., HORIBA Jobin Yvon, NJ, USA). A rectangular area of the surface was imaged and submitted to this multivariate analysis where a statistical pattern determined derived independent clusters to present chemically distinct regions. Average spectra are calculated per cluster which were used to provide information on particular peak parameters and component distribution in the resulting spectra. These components were analyzed for relative degree of mineralization via mineral-to-matrix ratio (MMR), inferred from the ratio of peak intensities at 960 cm^−1 (phosphate) and 1460 cm^−1 (CH2 bending), crystallinity via full width at half maximum (FWHM) from the v1 phosphate band (960 cm^−1), and the carbonate content of mineral crystallites via gradient in mineral content (GMC), based on ratio of relative carbonate (10^70 cm^−1) and phosphate (960 cm^−1) peak heights. The calcium-phosphate (Ca/P) to collagen ratio was also assessed to understand the relative thickness of the mineral formed during mineralization. This would help in comparative evaluations between the samples.
Next evaluated was the use of HABP1 to potentially direct mineralization within the adhesive/demineralized dentin hybrid layer. To do this RAMAN Divisive Clustering Analysis (DCA) was used, a hierarchical k-means clustering method which is useful for identifying the internal structure of multi-layer datasets. We mapped the most distinctive mineral composition variations associated with the collagen matrix structural variations according to their RAMAN spectra. […] The DCA method measures similarity in three parameters: ratio of 960/1460 peak (e.g., mineral-to-matrix ratio), ratio of 1078/960 (gradient mineral carbonation, GMC: carbonate to phosphate) peak, and ratio of the 960/1667 peaks (phosphate to collagen with retained amide I structure, Ca/P collagen). The spectral feature at 1460 cm^−1 is assigned to the CH2 wag for collagen, and 1667 cm^−1 is the amide I peak for the collagen used. The 960 cm^−1 peak is the v1 phosphate stretching vibration associated with the mineral and 10^78 cm^−1 is the band for v1 carbonate. The method clusters the following groups: collagen only, mineral group I, and mineral group II. […]

Type 1 rat tail collagen [2] = target: T1, Type 1 rat tail collagen (Rattus norvegicus, UniProt P02454+P02466); assay: Collagen fibril self-assembly with incorporated peptide, AFM topography fibril widths; details: peptide co-assembled with collagen (50 nanomoles in 1 mL of 3 mg/mL), drop-cast on mica
T1 construct: Collagen Type 1 solution from rat tail (3 mg/mL, C3867, 95%) was purchased from Sigma-Aldrich; purchased Sigma-Aldrich C3867; host or cells: rat tail (tissue-derived)
Procedure: (§2) Grade V1 round mica, 0.21 mm thick and 12 mm in diameter, was used as the substrate surface and mounted onto a 12 mm atomic force microscopy specimen disc using STKYDOT adhesive. In 1 mL of 3 mg/mL Type 1 rat tail collagen suspension, 50 nanomoles of peptide were added. The ratio of mass collagen to mass peptide ranged from 100 wt collagen: 1 wt peptide for single domains to 100 wt collagen: 3 wt peptide for the chimeric peptide. Once peptide was dissolved and gently mixed in the collagen suspension, 150 μL was drop-cast onto the substrate surface and left to self-assemble at 4° C. for 16 h.
(§3) A Bruker Multimode 8 HR scanning probe microscope (Bruker Nano Inc., Camarillo, CA, USA) was operated in peak force tapping mode with the capability of Quantitative Nanomechanics (PeakForce-QNM) in air mode conditions (24±2° C., 40%±5% RH). This advanced testing mode was used to examine the topographical and nanomechanical property changes of the collagen-peptide samples both before and after mineralization. Tapping mode etched silicon probes, type RTESPA 525-30 (Bruker Nano Inc., Camarillo, CA, USA) with a resonant frequency of about 518 kHz, were used to acquire images (1 μm×3 μm and 5 μm×5 μm) at scan rate of 0.5 Hz with 512 pixel/line resolution. The images of the samples were recorded using NanoScope 8.15 software and analyzed using NanoScope Analysis 2.0 software (Bruker Nano Inc., Camarillo, CA, USA).
Building upon the conformational flexibility of the peptide, the CBP-HABP1 peptide was then studied for the assembly properties on the collagen fibrils on mica substrate using AFM topography image analysis. The images were acquired in tapping mode. Non-fibril features, indicated as intensity saturated regions on the surface, are acetic acid salt crystals from the evaporation of the solution in which the collagen was suspended. These features were excluded from image to prevent signal shadowing of the surface fibril assembly. […] Collagen+ (CBP-HABP1) fibrils were measured to be smaller than collagen-alone fibrils, resulting in a statistically significant difference. […]

Type 1 rat tail collagen [3] = target: T1, Type 1 rat tail collagen; assay: SEM/EDS of Ca-P deposits on peptide-incorporated collagen after ALP-driven mineralization; type: biochemical; details: for average Ca—P ratio: EDS, initial mineral on peptide-incorporated collagen after 20 min ALP-driven mineralization; for mineral formation morphology on SEM images: peptide-incorporated collagen after ALP-driven mineralization
Procedure: as §2, §1
In order to examine initial intrafibrillar mineral formation and morphology and determine Ca/P ratios precipitated on the peptide-functionalized collagen surface, a Cold Field Emission Scanning […] Microscope (SEM, S-4700 model, Hitachi High-Tech America, Schaumburg, IL, USA) equipped with a silicon drift energy-dispersive detector (EDS, X-max, Oxford Instruments, Concord, MA, USA) was used via the Microscopy and Analytical Imaging Research Resource Core Laboratory (RRID:SCR_021801). Collagen-peptide samples were sputter-coated with 3 nm gold using a Quorum sputter coating system (Q150, Quorum, Laughton, East Sussex, UK). SEM imaging was completed at an acceleration voltage of 10 kV at ultra-high resolution operating mode and EDS measurements were made at 10 kV under normal operating mode to preserve the integrity of the collagen-peptide layer and prevent burning during signal capture. EDS analysis was performed through AZtec software (X-MaxN, Oxford Instruments, Concord, MA, USA).
The composition and morphology of the Ca—P deposits formed on collagen samples were examined using scanning electron microscopy (SEM) with energy dispersive X-ray analysis (EDS). […] The EDS results validated the finding of Ca—P mineral isomorphs on the peptide-incorporated collagen platforms. The calcium/phosphate ratios were calculated to examine compositional differences. […] Whereas collagen+ (CBP) and collagen+ (CBP-HABP1) had comparatively lower average Ca—P ratios at 1.30 and 1.25, respectively. These values are similar to the molar ratio of octacalcium phosphate, which is around 1.33, and amorphous calcium phosphate (ACP), which is roughly 1.50 [54-57].

Type 1 rat tail collagen [4] = target: T1, Type 1 rat tail collagen; assay: PeakForce-QNM AFM modulus mapping of peptide-functionalized collagen pre/post ALP-driven mineralization; details: peptide incorporated into collagen
Procedure: as §2, §1, §3
Building on the observed effects of the chimeric peptide on the collagen, next examined was if there was a change on the mechanical properties of the collagen due to the peptide presence. Quantitative modulus mapping was executed via PeakForce-QNM AFM to observe the changes in the elastic modulus distribution on the surfaces. The elastic modulus was previously established to be derived by using the Derjaguin-Muller-Toropov (DMT) model, and is thus reported as the DMT modulus. […]

Type 1 rat tail collagen [5] = target: T1, Type 1 rat tail collagen; assay: MicroXCT imaging of mineral formed within peptide-incorporated collagen after ALP-driven mineralization; type: biochemical; details: MicroXCT shaded surface display, 20-min ALP-driven mineralization
Procedure: as §2
ALP-driven mineralization was executed following the protocol discussed in Gungormus et al. (2008). The mineralization buffer prepared was composed of 24.4 Ca^2+ mM and 14.4 mM B-glycerophosphate made in 25 mM Tris-HCl buffer at pH 7.4, and 200 μL/well was added to a 24-well plate. […]
The microscale structure of the mineral formed within the peptide-incorporated collagen platform as a physical indicator of intrafibrillar mineralization, was observed using 3D X-ray microcomputed tomography (MicroXCT-400, Xradia Inc., Pleasanton, CA, USA). […] The 3D images were reconstructed using the XM Reconstructor 8.0 software and were analyzed from an orthogonal view using a TXM 3D Viewer under the […] surface display (SSD) mode (Xradia Inc., Pleasanton, CA, USA). […]

[6] = target: Collagen Type 1 solution from rat tail (3 mg/mL, C3867, Sigma-Aldrich) (rat, UniProt P02454 152-1207; P02466 86-1125); assay: cell-based or functional assay
[7] = after 20 min ALP-driven mineralization

T1 sequence (P02466 86-1125 limits assumed): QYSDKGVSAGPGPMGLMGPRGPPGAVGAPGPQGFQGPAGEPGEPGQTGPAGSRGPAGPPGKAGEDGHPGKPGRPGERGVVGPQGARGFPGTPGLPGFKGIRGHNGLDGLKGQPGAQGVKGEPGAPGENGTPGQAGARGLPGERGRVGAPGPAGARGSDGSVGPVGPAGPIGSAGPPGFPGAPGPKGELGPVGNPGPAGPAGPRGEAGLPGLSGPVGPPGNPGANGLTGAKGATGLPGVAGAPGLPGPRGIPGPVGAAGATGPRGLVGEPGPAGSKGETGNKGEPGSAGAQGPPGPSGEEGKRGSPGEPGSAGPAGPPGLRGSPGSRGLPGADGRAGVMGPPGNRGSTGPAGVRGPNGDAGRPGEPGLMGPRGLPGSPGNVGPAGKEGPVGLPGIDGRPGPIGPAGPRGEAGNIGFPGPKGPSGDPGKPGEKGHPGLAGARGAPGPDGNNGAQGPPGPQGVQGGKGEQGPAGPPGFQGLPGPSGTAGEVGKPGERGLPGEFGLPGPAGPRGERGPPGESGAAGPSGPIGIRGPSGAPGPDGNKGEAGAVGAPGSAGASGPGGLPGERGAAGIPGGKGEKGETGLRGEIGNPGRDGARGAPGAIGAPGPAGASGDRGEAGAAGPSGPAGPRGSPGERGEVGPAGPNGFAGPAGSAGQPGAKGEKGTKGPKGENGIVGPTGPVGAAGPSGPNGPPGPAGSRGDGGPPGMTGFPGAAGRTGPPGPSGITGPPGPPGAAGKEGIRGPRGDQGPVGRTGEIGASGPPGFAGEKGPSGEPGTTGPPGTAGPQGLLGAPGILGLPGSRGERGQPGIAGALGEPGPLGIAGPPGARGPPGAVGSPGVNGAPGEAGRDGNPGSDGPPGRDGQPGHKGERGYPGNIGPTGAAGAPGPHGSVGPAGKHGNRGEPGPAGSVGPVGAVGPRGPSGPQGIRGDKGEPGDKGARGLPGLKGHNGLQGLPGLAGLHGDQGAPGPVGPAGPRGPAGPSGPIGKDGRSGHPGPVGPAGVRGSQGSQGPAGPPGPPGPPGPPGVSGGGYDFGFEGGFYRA
T1 sequence (P02454 152-1207 limits assumed): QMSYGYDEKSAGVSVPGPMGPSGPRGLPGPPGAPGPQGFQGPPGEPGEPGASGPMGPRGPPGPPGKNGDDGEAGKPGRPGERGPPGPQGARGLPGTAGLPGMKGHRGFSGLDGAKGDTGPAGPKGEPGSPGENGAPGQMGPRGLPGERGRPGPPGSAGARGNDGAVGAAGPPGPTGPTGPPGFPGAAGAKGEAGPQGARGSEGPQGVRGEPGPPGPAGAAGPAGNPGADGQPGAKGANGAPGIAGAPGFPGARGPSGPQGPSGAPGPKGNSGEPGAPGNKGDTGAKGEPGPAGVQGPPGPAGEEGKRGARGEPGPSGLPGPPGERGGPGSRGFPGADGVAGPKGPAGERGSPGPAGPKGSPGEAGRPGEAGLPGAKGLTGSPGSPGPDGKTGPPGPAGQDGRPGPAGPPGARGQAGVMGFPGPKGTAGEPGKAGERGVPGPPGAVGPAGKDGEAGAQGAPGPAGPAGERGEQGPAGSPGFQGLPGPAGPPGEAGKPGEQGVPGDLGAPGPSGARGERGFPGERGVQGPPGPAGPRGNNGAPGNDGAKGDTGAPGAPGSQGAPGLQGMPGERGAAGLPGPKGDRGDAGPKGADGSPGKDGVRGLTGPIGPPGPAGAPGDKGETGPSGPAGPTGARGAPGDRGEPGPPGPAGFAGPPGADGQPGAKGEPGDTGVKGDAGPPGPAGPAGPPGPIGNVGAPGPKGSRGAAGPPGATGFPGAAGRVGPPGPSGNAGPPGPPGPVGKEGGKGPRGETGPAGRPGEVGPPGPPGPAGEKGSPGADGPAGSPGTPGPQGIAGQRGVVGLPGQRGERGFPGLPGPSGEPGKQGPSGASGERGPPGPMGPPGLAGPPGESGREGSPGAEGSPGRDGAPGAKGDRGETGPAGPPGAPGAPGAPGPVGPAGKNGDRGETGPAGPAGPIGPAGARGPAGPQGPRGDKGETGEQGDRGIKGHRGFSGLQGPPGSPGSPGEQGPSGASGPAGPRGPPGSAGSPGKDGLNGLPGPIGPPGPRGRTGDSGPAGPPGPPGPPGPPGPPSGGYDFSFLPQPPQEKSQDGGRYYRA
Sequence of Collagen Type 1 solution from rat tail (3 mg/mL, C3867, Sigma-Aldrich) (P02454 152-1207 limits assumed, chain 1 of 2): as the sequence (P02454 152-1207 limits assumed) above
Sequence of Collagen Type 1 solution from rat tail (3 mg/mL, C3867, Sigma-Aldrich) (P02466 86-1125 limits assumed, chain 2 of 2): as the sequence (P02466 86-1125 limits assumed) above

| Molecule | Mean fibril width (Type 1 rat tail collagen [2]) | average Ca—P ratio (Type 1 rat tail collagen [3]) | mineral formation morphology on SEM images (Type 1 rat tail collagen [3]) | DMT (elastic) modulus (Type 1 rat tail collagen [4]; [7]) | DMT (elastic) modulus (Type 1 rat tail collagen [4]; pre-mineralization) | fibril width, Coefficient of variation, AFM topographical imaging [6] | fibril width, Standard Deviation, AFM topographical imaging [6] | other results |
| --- | --- | --- | --- | --- | --- | --- | --- | --- |
| MLPHHGA [HABP1] | 129.9 nm and 129.90 nm | 1.41 | more extensively branched columnar mineral growth as well as plate-like mineral growth |  |  |  |  | MNRp 960/1460 ([1]; DCA class HABP1 Mineral II): 3.59; FMHW PO4^−3) ([1]; DCA class HABP1 Mineral II): 35.6; GMC 1078/960 ([1]; DCA class HABP1 Mineral II): 0.22; Ca-P/collagen 960/1667 ([1]; DCA class HABP1 Mineral II): 13.2; MNRp 960/1460 ([1]; DCA class HABP1 mineral I): 2.88; FMHW PO4^−3) ([1]; DCA class HABP1 mineral I): 39.6; GMC 1078/960 ([1]; DCA class HABP1 mineral I): 0.31; Ca-P/collagen 960/1667 ([1]; DCA class HABP1 mineral I): 23.9; mineralization shown with a RAMAN peak consistent with CaPO4 formation (960 cm^−1) ([1]; adhesive/dentin specimen, compared with mineralization procedure without peptide): mediates mineralization |
| TKKLTLRT [CBP] | 121.4 nm and 121.40 nm | 1.30 | branched columnar mineral growth | 6.52 GPa | 5.16 GPa |  |  |  |
| TKKLTLRTAPAMLPHHGA [CBP-HABP1] | 82.37 nm | 1.25 | more extensively branched columnar mineral growth as well as plate-like mineral growth | 5.83 GPa | 5.25 GPa |  |  | void areas in collagen interior (Type 1 rat tail collagen [5]): almost no void areas; density of mineralized collagen layer (Type 1 rat tail collagen [5]; versus collagen control): denser formation compared to ALP-based mineralized collagen samples |
| TKKLTLRT-OH [collagenase-collagen-binding peptide (CBP), TKKLTLRT] |  |  |  |  |  | 17 | 20.7 nm |  |
| MLPHHGA-OH [hydroxyapatite-binding peptide (HABP1), MLPHHGA] |  |  |  |  |  | 67.5 | 87.6 nm |  |
| TKKLTLRTAPAMLPHHGA [bifunctional peptide TKKLTLRT-APA-MLPHHGA (CBP-HABP1)] |  |  |  |  |  | 32.1 | 26.5 nm |  |
